2 molecules from paper PMC12846707, “Structural and Functional Analysis of Porcine CR1-like Proteins in C4b-Mediated Immune Responses” (Veterinary Sciences, 2025) can be followed below.

The chains are these.
B1: Recombinant C4b α chain (domain or fragment)
chain: AMELLQEEELIEEDDIPVRSFFPENWLWRVEEVPHSLQLSLLLPDSLTTWEIHGVSLSKSTGLCVATPARVRVFREFHLHLRLPVSIHRFEQLELRPVLYNYLDKDVPVSVHVSPVEGLCLAGGGGLAQQVLVPAGSARPVGFSVVPISAAAVSLKVVARGSFDFPVGDAVSKILQIANEGAIHQEELVYALNPQNVLGRNLEIPGHSDPNVIPDGDFRSFVRLTASDPLDTLGSEGALSPGGLASLLRLPRGCAEQTMFYLAPTLAASRYLDKTEQWSTLPPETKDHAVDLIQKGYTRIQEFRKNDGSYGAWLHRESSTWLTAFVLKVLSLAQEQVGGSPEKLQETAAWLLLQQKEDGSFHDPCPVIHRDMQGGLVGNDEKVALTAFVVIALHHGLAVFQDRNAEQFKRVENAISTANDFLGEKVSSGLLGSHAAAISAYALSLSGAPEQLQDIAHNNLMAMAQKIGDHLFWGTVPSSQSNTLSPTPAPQRPTDPMPQAPALWIETTAYALLHLLIREGKAEMADQTASWLTRQGSYKGGFRSTQDTVIALDALSAYWILSHTTEEKELNVTLSSMSRGGFKSHVVRLTNHQVKGLEEELQFSLGSKINVKVGGNSKGTLKILRAYNVIDLKNTTCQDLQIEVTVKGHVEYMLEANEDYEEYEYEDLPAQDDPGAHSQPVTPLQLFDG
B2: Recombinant CR1-like CCPs 1-3 (domain or fragment)
chain: not shown

Assay in all cases: SPR; Biacore 8K, single-cycle; C4bα and C4bβ covalently immobilised on CM5 chip (about 1500 RU); CR1-like fragments or mutant as mobile phase, 1.56 × 10^-2 to 4 μM; 25 °C; 10 mM HEPES pH 7.4, 150 mM NaCl, 0.05% Tween-20; apparent KD = kd/ka
Holding throughout (details): both partners purified
Background: In SPR one partner is held on a chip, and binding of the other changes the refractive index at the surface.

Test [1] addresses T1, Recombinant CR1-like CCPs 12-14 (pig).
T1 construct: porcine CR1-like, CCP domains 12-14; Section 2.12 describes 6His-sumo (N-terminal) and flag (C-terminal) tags and insect cells for 'CR1-like fragments' in general

The test “Recombinant C4b α chain” addresses B1.
The next test has as its target T2, Recombinant C4b β chain (pig).
T2 construct: beta chain of porcine complement C4b, expressed as a separate chain; source: Escherichia coli (pET28a), purified (Ni-NTA, SP-HP cation exchange); not shown: 6His, N-terminal, kept; Flag-ppase, N-terminal, kept

Take B1: in test [1], the Kd was 317 nM. On to B2, for which the figures for the Kd with Recombinant C4b α chain and with Recombinant C4b β chain were 226 nM and 173 nM, respectively.
